Experimental data: patent publication US9289381B2, “Stabilization and storage of biological pharmaceutical compositions” (The University of North Carolina at Charlotte, priority 2009, dated 2016)
“And” between values parts separate entries of the source, which are not always exact repeats. Equal entries are not always repeated.

How the values were obtained:
[1] = system: micrococcus lysodeikticus; experiment: Micrococcus lysodeikticus turbidimetric assay of HEWL enzyme activity; format: biochemical; settings: formulated in NaOAc compared with 80% w/w CDHP, 10 and 100 mg/ml, 5 months
[2] = Sedimentation analysis of HEWL dispersions (centrifugation, BCA); format: physicochemical; settings: HEWL dispersion in 80% w/w CDHP, 75 minutes at 15000 RPM
Method: The presence of any CDHP crystals was also noted. […] Images were taken using SlideBook.
The second approach to verify these sample compositions was to determine the amount of protein in the dispersed phase after separation of the solid and liquid components by centrifugation. To achieve separation of these components, solutions were centrifuged for 75 minutes at 15000 RPM, about 10% remained in the supernatant. Both the decanted supernatant and the pellet, which was re-suspended in buffer, were analyzed for protein content. It was observed that ˜90% of the formulated protein was contained in the pellet. The remaining about 10% of the formulated protein was found in the supernatant. […] Although the supernatants appeared clear it is possible that there are sub-visible particles of lysozyme in the supernatant that resist sedimentation at this rate.

[3] = 350 mg/ml vs 1 mg/ml, aqueous solvent; cited from earlier work
[4] = Microcalorimetry (DSC) of HEWL dispersions stored in 80% w/w CDHP or 0.1M NaOAc; format: physicochemical; set-up: Thermal transition midpoint temperature of HEWL: unit not given here
Method: The samples were formulated in 2 ml silanized glass vials to reduce protein-surface interactions, covered with cap and septa, wrapped with parafilm to ensure no drying out of the sample, and stored away from sunlight. They were stirred for at least 24 hours until a homogeneous distribution of protein was obtained. […] The 35 silanized vials were exposed to UV light for 24 hours to ensure sterility. Control samples at equivalent concentrations were also prepared in triplicates in 0.1M NaOAc buffer (pH 4). Samples were tested for thermal stability via microcalorimetry and functional activity via the micrococcus lysodeikticus assay at monthly intervals.
A MicroCal VP-DSC microcalorimeter was used to assess thermal structural stability of all samples. Baseline repeatability was established with a minimum of 5 buffer-buffer scans. […] HEWL solutions were tested similarly with no dilution of the samples. Between samples, during the filling period of 15° C. to 25° C., the sample cell of the DSC was flushed with at least 25 ml distilled H2O, then at least 15 ml NaOAc to ensure no sample residue remained behind. Thermal profiles, enthalpy changes, and transition temperatures were obtained with Origin software.
All formulations were diluted to 0.1-0.5 mg/ml for testing. This allows one to observe how well protein thermal stability and structural integrity is maintained following storage and then dilution into a solution of similar composition as the environment of the body.

[5] = stored at 10 mg/ml in Choline dhp, 1 month
[6] = stored at 10 mg/ml in Choline dhp, 2 months
[7] = stored at 10 mg/ml in Choline dhp, 3 months
[8] = stored at 10 mg/ml in Choline dhp, 4 months
[9] = stored at 10 mg/ml in Choline dhp, 5 months
[10] = stored at 100 mg/ml in Choline dhp, 0 months

For “HEWL: hen egg white lysozyme (HEWL), a well characterized protein, purchased from Worthington Biochem”, the “enzyme activity over time” value [1] was “degrades faster”, the “formulated protein contained in the pellet” value [2] was ~90% and the “formulated protein found in the supernatant” value [2] was “about 10%”. For the same substance, the “decrease of thermal transition midpoint temperature at the higher concentration” value [3] was ~5 °C, the “enthalpic change during unfolding at 1 month, % of the maximum (average)” value ([4]; 10 mg/ml HEWL control formulation (0.1M NaOAc)) was 64% and the “enthalpic change during unfolding at 1 month, % of the maximum (average)” value ([4]; 10 mg/ml HEWL in 80% w/w CDHP) was 87%. The “enthalpic change during unfolding at 1 month, % of the maximum (average)” value ([4]; 100 mg/ml HEWL control formulation (0.1M NaOAc)) was 60%, the “enthalpic change during unfolding at 1 month, % of the maximum (average)” value ([4]; 100 mg/ml HEWL in 80% w/w CDHP) was 85% and the “shelf-life (fraction of folded protein, Cp signal)” value ([4]; 80% CDHP wt/wt vs 0.1M sodium acetate pH 4.0, 1-3 months at room temperature) was “superior shelf-life”. The “drop of Tm over 5 months” value ([4]; HEWL control formulations (0.1M NaOAc)) was “between one and two degrees”, the “drop of Tm over 5 months” value ([4]; HEWL formulated in 80% w/w CDHP) was “less than a degree” and the “Enthalpy of unfolding of HEWL” value ([4]; stored at 10 mg/ml in 0.1M NaOAc, 0 months) was 99.49 kcal/mol and 102.53 kcal/mol and 105.48 kcal/mol. For the same substance, the “Enthalpy of unfolding of HEWL” value ([4]; stored at 10 mg/ml in 0.1M NaOAc, 1 month) was 71.64 kcal/mol and 67.32 kcal/mol and 58.77 kcal/mol, the “Enthalpy of unfolding of HEWL” value ([4]; stored at 10 mg/ml in 0.1M NaOAc, 2 months) was 53.856 kcal/mol and 52.812 kcal/mol and 56.88 kcal/mol and the “Enthalpy of unfolding of HEWL” value ([4]; stored at 10 mg/ml in 0.1M NaOAc, 3 months) was 39.168 kcal/mol and 40.734 kcal/mol and 40.69 kcal/mol. The “Enthalpy of unfolding of HEWL” value ([4]; stored at 10 mg/ml in 0.1M NaOAc, 4 months) was 24.8706 kcal/mol and 36.9316 kcal/mol and 26.9568 kcal/mol, the “Enthalpy of unfolding of HEWL” value ([4]; stored at 10 mg/ml in 0.1M NaOAc, 5 months) was 18.4 kcal/mol and 20.9 kcal/mol and 22.4 kcal/mol and the “Enthalpy of unfolding of HEWL” value ([4]; stored at 10 mg/ml in Choline dhp (80% w/w CDHP), 0 months) was 102 kcal/mol and 101.7 kcal/mol and 108.3 kcal/mol. The “Thermal transition midpoint temperature of HEWL” value ([4]; stored at 10 mg/ml in Choline dhp, 0 months) was 346.71 and 346.74, the “Enthalpy of unfolding of HEWL” value [4, 5] was 90.932 kcal/mol and 90.855 kcal/mol and 89.61 kcal/mol and the “Thermal transition midpoint temperature of HEWL” value [4, 5] was 346.7 and 346.62 and 346.75. The “Enthalpy of unfolding of HEWL” value [4, 6] was 80.771 kcal/mol and 79.236 kcal/mol and 79.113 kcal/mol, the “Thermal transition midpoint temperature of HEWL” value [4, 6] was 346.84 and 346.81 and 346.39 and the “Enthalpy of unfolding of HEWL” value [4, 7] was 56.64 kcal/mol and 55.227 kcal/mol and 63.418 kcal/mol. For the same substance, the “Thermal transition midpoint temperature of HEWL” value [4, 7] was 346.98 and 346.52 and 346.35, the “Enthalpy of unfolding of HEWL” value [4, 8] was 46.7208 kcal/mol and 47.358 kcal/mol and 51.147 kcal/mol and the “Thermal transition midpoint temperature of HEWL” value [4, 8] was 346.47 and 346.43 and 346.5. The “Enthalpy of unfolding of HEWL” value [4, 9] was 36.9 kcal/mol and 43 kcal/mol, the “Thermal transition midpoint temperature of HEWL” value [4, 9] was 346.27 and 346.37 and 346.21 and the “Thermal transition midpoint temperature of HEWL” value ([4]; stored at 10 mg/ml in NaOAc, 0 months) was 346.68 and 346.77 and 347.14. The “Thermal transition midpoint temperature of HEWL” value ([4]; stored at 10 mg/ml in NaOAc, 1 month) was 345.79 and 345.93 and 345.94, the “Thermal transition midpoint temperature of HEWL” value ([4]; stored at 10 mg/ml in NaOAc, 2 months) was 345.85 and 345.9 and 345.8 and the “Thermal transition midpoint temperature of HEWL” value ([4]; stored at 10 mg/ml in NaOAc, 3 months) was 345.72 and 345.9 and 345.48. The “Thermal transition midpoint temperature of HEWL” value ([4]; stored at 10 mg/ml in NaOAc, 4 months) was 345.17 and 345.1 and 345.21, the “Thermal transition midpoint temperature of HEWL” value ([4]; stored at 10 mg/ml in NaOAc, 5 months) was 345.13 and 345.05 and 345.15 and the “Enthalpy of unfolding of HEWL” value ([4]; stored at 100 mg/ml in 0.1M NaOAc, 0 months) was 101.14 kcal/mol and 105.2 kcal/mol and 108.2 kcal/mol. The “Enthalpy of unfolding of HEWL” value ([4]; stored at 100 mg/ml in 0.1M NaOAc, 1 month) was 62.01 kcal/mol and 56.61 kcal/mol and 71.973 kcal/mol, the “Enthalpy of unfolding of HEWL” value ([4]; stored at 100 mg/ml in 0.1M NaOAc, 2 months) was 58.311 kcal/mol and 60.858 kcal/mol and 54.729 kcal/mol and the “Enthalpy of unfolding of HEWL” value ([4]; stored at 100 mg/ml in 0.1M NaOAc, 3 months) was 46.606 kcal/mol and 46.506 kcal/mol and 46.224 kcal/mol. For the same substance, the “Enthalpy of unfolding of HEWL” value ([4]; stored at 100 mg/ml in 0.1M NaOAc, 4 months) was 30.8889 kcal/mol and 32.07177 kcal/mol and 29.8026 kcal/mol, the “Enthalpy of unfolding of HEWL” value ([4]; stored at 100 mg/ml in 0.1M NaOAc, 5 months) was 26.8 kcal/mol and 29.1 kcal/mol and 23.9 kcal/mol and the “Enthalpy of unfolding of HEWL” value [4, 10] was 107.1 kcal/mol and 100.7 kcal/mol and 108.3 kcal/mol. The “Thermal transition midpoint temperature of HEWL” value [4, 10] was 347.45 and 347.05 and 347.11.
